Assays:
[1] = molecular target: recombinant human c-Met-Fc protein (R&D Systems, cat. 358MT) (human) (UniProt P08581); assay: displacement of [125I]-HGF (200 pM) from c-Met-Fc immobilized on protein A FlashPlate
[2] = molecular target: T1, human c-Met receptor, native, on tumor cells and tumor tissue (human, UniProt P08581 25-1390); assay: IHC on paraffin-embedded human breast and stomach tumor tissues
T1 construct: whole, on cells; Endogenous c-Met of human tumor cell lines, U87-MG xenografts and human tumor tissues; also called native c-Met; native receptor on tumor cells

[3] = molecular target: T2, recombinant human c-Met-Fc protein (R&D Systems, cat. 358MT) (human, UniProt P08581 25-932); assay: Biacore, c-Met-Fc captured by anti-polyhistidine Mab, 224D10 injected second at 20 µg/ml
T2 construct: extracellular domain; Bought reagent (R&D Systems 358MT / 358-MT/CF); also called rh c-Met-Fc; HGF-R/Fc chimera protein; not shown: Fc part; polyhistidine tag implied by capture on an anti-polyhistidine Mab; not described

[4] = molecular target: T2, recombinant human c-Met-Fc protein (R&D …); assay: displacement of [125I]-HGF (200 pM) from c-Met-Fc immobilized on protein A FlashPlate

T2 sequence (P08581 25-932): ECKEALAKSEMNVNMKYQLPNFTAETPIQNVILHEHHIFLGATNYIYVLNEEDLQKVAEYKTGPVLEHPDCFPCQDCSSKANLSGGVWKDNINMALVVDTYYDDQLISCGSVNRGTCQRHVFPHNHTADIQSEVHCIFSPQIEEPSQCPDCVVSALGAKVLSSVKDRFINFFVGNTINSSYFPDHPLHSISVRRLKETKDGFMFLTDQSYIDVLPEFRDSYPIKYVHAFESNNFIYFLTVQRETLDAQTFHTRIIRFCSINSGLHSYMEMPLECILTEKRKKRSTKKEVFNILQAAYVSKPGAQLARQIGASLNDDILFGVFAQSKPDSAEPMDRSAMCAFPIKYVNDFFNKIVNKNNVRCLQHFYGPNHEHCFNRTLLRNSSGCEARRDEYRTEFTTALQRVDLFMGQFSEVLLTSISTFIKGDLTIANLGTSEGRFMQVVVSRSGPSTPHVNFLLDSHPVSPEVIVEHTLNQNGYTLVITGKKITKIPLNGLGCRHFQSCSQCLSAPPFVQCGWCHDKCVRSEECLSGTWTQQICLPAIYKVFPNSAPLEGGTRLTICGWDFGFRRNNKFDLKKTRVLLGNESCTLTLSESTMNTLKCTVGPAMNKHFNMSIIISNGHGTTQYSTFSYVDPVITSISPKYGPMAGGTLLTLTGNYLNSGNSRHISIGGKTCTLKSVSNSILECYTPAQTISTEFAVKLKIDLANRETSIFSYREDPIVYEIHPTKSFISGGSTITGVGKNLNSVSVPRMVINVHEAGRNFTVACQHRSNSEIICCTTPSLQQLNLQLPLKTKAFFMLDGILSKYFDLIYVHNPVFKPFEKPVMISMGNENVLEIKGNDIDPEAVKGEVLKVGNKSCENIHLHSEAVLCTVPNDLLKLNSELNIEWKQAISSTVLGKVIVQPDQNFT
T1 sequence (P08581 25-1390): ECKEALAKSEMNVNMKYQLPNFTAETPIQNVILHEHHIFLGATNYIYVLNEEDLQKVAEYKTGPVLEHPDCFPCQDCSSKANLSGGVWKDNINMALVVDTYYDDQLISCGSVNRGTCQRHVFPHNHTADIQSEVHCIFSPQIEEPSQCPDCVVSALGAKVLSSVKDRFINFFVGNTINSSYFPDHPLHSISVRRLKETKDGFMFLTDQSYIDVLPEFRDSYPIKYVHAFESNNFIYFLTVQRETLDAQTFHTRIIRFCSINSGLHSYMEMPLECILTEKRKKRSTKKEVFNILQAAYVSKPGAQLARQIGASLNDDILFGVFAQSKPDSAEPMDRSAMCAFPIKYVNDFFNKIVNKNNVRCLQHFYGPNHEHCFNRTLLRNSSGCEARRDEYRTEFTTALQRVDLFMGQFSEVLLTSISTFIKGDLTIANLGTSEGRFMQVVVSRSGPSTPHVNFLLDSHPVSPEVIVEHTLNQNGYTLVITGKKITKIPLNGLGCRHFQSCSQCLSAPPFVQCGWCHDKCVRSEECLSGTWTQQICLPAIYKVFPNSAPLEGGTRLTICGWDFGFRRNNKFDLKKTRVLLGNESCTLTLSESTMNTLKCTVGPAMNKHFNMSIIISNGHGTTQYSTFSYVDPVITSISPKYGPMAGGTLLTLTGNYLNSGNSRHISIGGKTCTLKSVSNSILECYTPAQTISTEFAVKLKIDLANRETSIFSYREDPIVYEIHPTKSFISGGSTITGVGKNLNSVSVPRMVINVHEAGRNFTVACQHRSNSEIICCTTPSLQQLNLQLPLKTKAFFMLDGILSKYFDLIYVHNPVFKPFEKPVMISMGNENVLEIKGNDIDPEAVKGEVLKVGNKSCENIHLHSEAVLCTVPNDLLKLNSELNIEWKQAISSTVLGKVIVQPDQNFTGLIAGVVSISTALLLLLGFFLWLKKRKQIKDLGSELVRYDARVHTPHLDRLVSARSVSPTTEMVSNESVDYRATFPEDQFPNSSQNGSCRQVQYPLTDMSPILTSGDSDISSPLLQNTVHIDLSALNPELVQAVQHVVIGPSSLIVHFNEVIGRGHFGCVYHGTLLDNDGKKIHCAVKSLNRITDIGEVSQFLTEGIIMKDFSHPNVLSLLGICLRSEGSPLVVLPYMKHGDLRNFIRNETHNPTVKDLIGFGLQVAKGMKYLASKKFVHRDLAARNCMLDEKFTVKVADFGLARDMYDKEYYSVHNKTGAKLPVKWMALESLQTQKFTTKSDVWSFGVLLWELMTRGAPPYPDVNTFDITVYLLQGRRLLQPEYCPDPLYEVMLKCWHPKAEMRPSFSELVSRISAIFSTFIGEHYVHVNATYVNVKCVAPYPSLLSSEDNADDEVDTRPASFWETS
recombinant human c-Met-Fc protein (R&D Systems, cat. 358MT) (human), sequence (P08581 25-932): as the sequence (P08581 25-932) above

With “5D5 anti-c-Met Mab (Genentech, hybridoma at the ATCC) (antibody)” the IC50 [1] was 4.4 nM.

B1: murine 224D10 monoclonal antibody (antibody, V domains shown)
VH: DLQLQESGPGLVKPSQSLSLTCSVTGYSITSAYFWSWIRQFPGNKLEWMGFINYDGTNNYNPSLKNRISITRDTSKNQFFLRLNSVTTDDTATYYCTRDRTFAYWGQGTLVTVSA
VL: DIVLTQSPATLSVTPGDRVSLSCRASQRIYNYLHWYQQKSHESPRLLIKYASQSISGIPSRFSGSGSGTDFILTINSVETEDFGMYFCQQSNSWPLTFGAGTKLELR
notes: Whole murine monoclonal antibody secreted by hybridoma CNCM I-3949; a murine IgG1 (9G4) served as its isotype control; also called m224D10; 224D10 Mab
B1: binds [2]; binds [3].

B2: 11E1 anti-c-Met Mab (antibody, V domains shown)
VH: QVQLQQSGAELAKPGASVKMSCKASGYTFTSYWMNWVKQRPGQGLEWIGYINPTTGSTDYNQKLKDKATLTADKSSNTAYMQLSSLTSEDSAVYYCAIGGYGSWFAYWGQGTLVTVSA
VL: QIVLTQSPAIMSASPGEKVTLTCSASSSVSSTYLYWYQQKPGSSPKLWIYTTSILASGVPARFSGSGSGTSYSLTISSMETEDAASYFCHQWSSYPFTFGSGTKLDIK
B2 was tested, and the IC50 [4] was 42 nM.

Reference: US20140295452A1 (PIERRE FABRE MEDICAMENT, published 2014)
